Test results taken from the supplement of paper PMC6757056.
± gives the standard deviation of the averaged measurements.

B1: library; a variant is named by its letters at N, in order (parent)
chain: GCUGUCACCGGUGCUUGGUACGUUAUAUUCAGCCGGUCUGAUGAGUCUNNNNNNAGACGAAACAGC

Legend:
(6R,S)-folinic acid [1] = variants of: B1; experiment: FACS-Seq fitted mean relative fluorescence mCherry/BFP without ligand (log10 relative fluorescence); HEK293T overexpressing SLC46A1; higher = higher reporter protein expression; details: without (6R,S)-folinic acid; ligand present: no
Summary of the method: (§1)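 Lentivirally transduced HEK293T libraries carried an mCherry reporter with the ribozyme switch and an EF1α-BFP marker. Transduced cells were enriched, then incubated with or without ligand for 48 h and sorted into 6 bins by mCherry/BFP. Genomic DNA from each bin was PCR-amplified, barcoded and sequenced on MiSeq. Fluorescence was the fitted normal mean of log10(mCherry/BFP) bin counts, scaled to five spiked-in control ribozymes.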

(6R,S)-folinic acid [2] = variants of: B1; experiment: normalized RNA/DNA level without ligand (relative to sTRSVctl = 100) (log10 (% of sTRSVctl)); HEK293T overexpressing SLC46A1; higher = less ribozyme self-cleavage, higher mRNA level; details: without (6R,S)-folinic acid; ligand present: no
Summary of the method: (§2)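 RNA level was computed as RNA reads over DNA reads divided by a spiked-in non-cleaving sequence or by the top sequences, then scaled and log-transformed. Scaling was ×100 with log10, the top group was 25 sequences, and the threshold was ≥100 DNA reads. The reads came from HEK293T cells transfected at 4 µg per 6-well well with ribozyme switch library plasmids (mCherry, or eGFP in some ligand experiments). Total RNA was extracted with EDTA 72 h after transfection, with any ligand added 1 h before it.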

(6R,S)-folinic acid [3] = variants of: B1; experiment: FACS-Seq fitted mean relative fluorescence mCherry/BFP with ligand (log10 relative fluorescence); HEK293T overexpressing SLC46A1; ligand concentration (+) FACS-Seq: 6 mM; higher = higher reporter protein expression; details: with (6R,S)-folinic acid; ligand present: yes
Summary of the method: as §1

(6R,S)-folinic acid [4] = variants of: B1; experiment: normalized RNA/DNA level with ligand (relative to sTRSVctl = 100) (log10 (% of sTRSVctl)); HEK293T overexpressing SLC46A1; ligand concentration (+) RNA-Seq: 6 mM; higher = less ribozyme self-cleavage, higher mRNA level; details: with (6R,S)-folinic acid; ligand present: yes
Summary of the method: as §2

| Variant | FACS-Seq fitted mean (log10) ((6R,S)-folinic acid [1]) | normalized RNA/DNA level without ligand (log10) ((6R,S)-folinic acid [2]) | FACS-Seq fitted mean (log10) ((6R,S)-folinic acid [3]) | normalized RNA/DNA level with ligand (log10) ((6R,S)-folinic acid [4]) |
| --- | --- | --- | --- | --- |
| UGAAGA | 0.139 ± 0.053 | 1.877 ± 0.0079 | 0.513 ± 0.11 | 1.98 ± 0.027 |
| UGAAGU | 0.167 ± 0.1 | 1.907 ± 0.015 | 0.347 ± 0.17 | 2.01 ± 0.036 |
| UGAAGG | 0.12 ± 0.034 | 1.645 ± 0.012 | 0.569 ± 0.24 | 1.96 ± 0.042 |
| GGGAGU | 0.46 ± 0.087 | 1.975 ± 0.0027 | 0.487 ± 0.054 | 2 ± 0.038 |
| GGGAGC | 0.342 ± 0.098 | 1.831 ± 0.0028 | 0.435 ± 0.029 | 1.96 ± 0.029 |
| GGGAGG | 0.108 ± 0.032 | 2.014 ± 0.004 | 0.269 ± 0.081 | 2.04 ± 0.032 |
| GGAGUA | 0.117 ± 0.042 | 1.9805 ± 0.0005 | 0.0493 ± 0.22 | 2.03 ± 0.029 |
| CGAGUU | 0.1373 ± 0.00078 | 1.997 ± 0.012 | 0.394 ± 0.014 | 2 ± 0.031 |
| CGAGUG | 0.389 ± 0.14 | 1.964 ± 0.0042 | 0.341 ± 0.17 | 2.01 ± 0.032 |
| UGGAGA | 0.189 ± 0.11 | 1.83 ± 0.026 | 0.388 ± 0.12 | 2.01 ± 0.044 |
| UGGAGU | 0.504 ± 0.12 | 1.894 ± 0.0062 | 0.658 ± 0.037 | 1.99 ± 0.035 |
| UGGAGG | 0.042 ± 0.039 | 1.641 ± 0.0022 | 0.458 ± 0.14 | 1.96 ± 0.031 |
| UGCAUG | 0.298 ± 0.025 | 1.734 ± 0.0064 | 0.712 ± 0.11 | 1.97 ± 0.026 |
| UGCAUU | 0.0991 ± 0.29 | 1.987 ± 0.01 | -0.057 ± 0.47 | 2.01 ± 0.043 |
| CGGAAU | 0.329 ± 0.016 | 1.97 ± 0.022 | 0.208 ± 0.2 | 2.02 ± 0.034 |
| GGAUAA | 0.686 ± 0.051 | 1.9974 ± 0.00055 | 0.655 ± 0.074 | 2.03 ± 0.026 |
| UGACCA | 0.061 ± 0.12 | 2.042 ± 0.0098 | -0.0235 ± 0.23 | 2.05 ± 0.039 |
| UGCAAA | 0.549 ± 0.013 | 1.957 ± 0.0057 | 0.532 ± 0.037 | 1.98 ± 0.034 |
| UGCAAU | 0.173 ± 0.069 | 1.841 ± 0.0071 | 0.456 ± 0.15 | 1.973 ± 0.016 |
| GGAGGU | 0.445 ± 0.085 | 2.02 ± 0.033 | 0.592 ± 0.05 | 2.05 ± 0.07 |
| GGAGGC | -0.315 ± 0.075 | 1.936 ± 0.0065 | -0.531 ± 0.17 | 2.0118 ± 0.0015 |
| CGCCAG | 0.509 ± 0.022 | 1.998 ± 0.013 | 0.216 ± 0.15 | 1.998 ± 0.016 |
| CGAAUA | 0.314 ± 0.065 | 1.954 ± 0.0097 | 0.45 ± 0.14 | 1.978 ± 0.018 |
| GGGAAG | 0.485 ± 0.082 | 1.955 ± 0.015 | 0.402 ± 0.061 | 2.04 ± 0.027 |

| Variant | FACS-Seq fitted mean (log10) ((6R,S)-folinic acid [1]) | normalized RNA/DNA level without ligand (log10) ((6R,S)-folinic acid [2]) | FACS-Seq fitted mean (log10) ((6R,S)-folinic acid [3]) | normalized RNA/DNA level with ligand (log10) ((6R,S)-folinic acid [4]) |
| --- | --- | --- | --- | --- |
| UGACUG | 0.14 ± 0.2 | 1.857 ± 0.0074 | 0.368 ± 0.08 | 1.99 ± 0.054 |
| UGCGUG | -0.00857 ± 0.093 | 1.6768 ± 0.0013 | 0.36 ± 0.1 | 1.95 ± 0.045 |
| CGCAUU | 0.241 ± 0.21 | 2.015 ± 0.0023 | 0.576 ± 0.31 | 1.99 ± 0.039 |
| CGCAUA | 0.387 ± 0.012 | 1.98 ± 0.0046 | 0.156 ± 0.073 | 2 ± 0.059 |
| CGCUUU | -0.0215 ± 0.022 | 2.017 ± 0.0068 | 0.0431 ± 0.039 | 2 ± 0.063 |
| CGAACC | 0.4 ± 0.15 | 2.059 ± 0.013 | 0.315 ± 0.15 | 2.02 ± 0.054 |
| CGAACA | 0.317 ± 0.096 | 1.981 ± 0.0064 | 0.446 ± 0.21 | 1.985 ± 0.0071 |
| AGAUUC | 0.551 ± 0.08 | 2.05 ± 0.0077 | 0.54 ± 0.24 | 2.04 ± 0.042 |
| AGAUUA | 0.568 ± 0.048 | 2.001 ± 0.018 | 0.535 ± 0.036 | 2.01 ± 0.037 |
| UGACGA | 0.311 ± 0.052 | 1.9519 ± 0.0017 | 0.493 ± 0.015 | 2.04 ± 0.014 |
| UGACGC | 0.28 ± 0.091 | 2.017 ± 0.0099 | 0.284 ± 0.026 | 2.033 ± 0.017 |
| UGACGG | -0.24 ± 0.039 | 1.748 ± 0.0057 | 0.0392 ± 0.065 | 1.99 ± 0.044 |
| UGCCUG | 0.68 ± 0.017 | 1.875 ± 0.016 | 0.78 ± 0.085 | 2.02 ± 0.021 |
| AGCGCA | 0.49 ± 0.034 | 2.01 ± 0.021 | 0.548 ± 0.31 | 2.04 ± 0.029 |
| GGAAAG | 0.253 ± 0.061 | 1.955 ± 0.0027 | 0.123 ± 0.011 | 2.02 ± 0.041 |
| UGCGCU | 0.293 ± 0.033 | 2.043 ± 0.0054 | 0.428 ± 0.044 | 2.04 ± 0.03 |
| AGCCGU | 0.507 ± 0.044 | 2.018 ± 0.017 | 0.3424 ± 0.0012 | 2.0145 ± 0.00041 |
| GGCAUA | 0.173 ± 0.12 | 2.032 ± 0.012 | 0.286 ± 0.1 | 2.01 ± 0.027 |
| UGAUCG | 0.0489 ± 0.16 | 1.84 ± 0.021 | 0.0432 ± 0.082 | 1.992 ± 0.016 |
| UGAGUG | 0.376 ± 0.083 | 1.652 ± 0.011 | 0.652 ± 0.081 | 1.93 ± 0.023 |
| UGAGUA | 0.204 ± 0.015 | 1.911 ± 0.0073 | 0.422 ± 0.1 | 2 ± 0.043 |
| GGCACC | 0.275 ± 0.084 | 2.018 ± 0.0066 | -0.0119 ± 0.33 | 2.017 ± 0.0025 |
| GGCACU | -0.00197 ± 0.025 | 2.08 ± 0.04 | -0.0531 ± 0.17 | 2.02 ± 0.036 |
| UGAGAU | 0.457 ± 0.23 | 1.83 ± 0.043 | 0.572 ± 0.015 | 1.98 ± 0.041 |

| Variant | FACS-Seq fitted mean (log10) ((6R,S)-folinic acid [1]) | normalized RNA/DNA level without ligand (log10) ((6R,S)-folinic acid [2]) | FACS-Seq fitted mean (log10) ((6R,S)-folinic acid [3]) | normalized RNA/DNA level with ligand (log10) ((6R,S)-folinic acid [4]) |
| --- | --- | --- | --- | --- |
| UGAGAA | 0.5 ± 0.038 | 1.917 ± 0.011 | 0.533 ± 0.26 | 1.98 ± 0.026 |
| UGAGAG | 0.384 ± 0.054 | 1.689 ± 0.012 | 0.526 ± 0.022 | 1.92 ± 0.02 |
| UGAGGG | 0.114 ± 0.058 | 1.657 ± 0.016 | 0.587 ± 0.016 | 1.95 ± 0.063 |
| UGAGGA | 0.309 ± 0.047 | 1.839 ± 0.0062 | 0.598 ± 0.2 | 1.99 ± 0.031 |
| UGGAUG | 0.178 ± 0.037 | 1.68 ± 0.017 | 0.784 ± 0.046 | 1.958 ± 0.015 |
| UGGAUU | 0.509 ± 0.13 | 1.9762 ± 0.00085 | 0.582 ± 0.21 | 2.03 ± 0.023 |
| AGACGC | 0.389 ± 0.13 | 2.018 ± 0.016 | 0.336 ± 0.11 | 2.01 ± 0.042 |
| AGACGA | -0.49 ± 0.11 | 1.99 ± 0.015 | -0.617 ± 0.18 | 2.02 ± 0.03 |
| UGCCGG | 0.22 ± 0.012 | 1.92 ± 0.011 | 0.707 ± 0.05 | 2.006 ± 0.018 |
| UGCAGA | -0.262 ± 0.068 | 1.899 ± 0.008 | -0.0873 ± 0.14 | 1.995 ± 0.0057 |
| UGCAGG | -0.138 ± 0.052 | 1.68 ± 0.029 | -0.00907 ± 0.1 | 1.909 ± 0.017 |
| AGCGGU | 0.638 ± 0.18 | 1.952 ± 0.013 | 0.522 ± 0.022 | 2 ± 0.043 |
| UGCGGG | -0.0146 ± 0.0024 | 1.788 ± 0.011 | 0.675 ± 0.21 | 1.99 ± 0.043 |
| AGGAUA | 0.115 ± 0.081 | 1.945 ± 0.0066 | 0.116 ± 0.17 | 2 ± 0.049 |
| CGCAGC | 0.491 ± 0.09 | 2.01 ± 0.033 | 0.645 ± 0.4 | 2.01 ± 0.031 |
| UGAACU | 0.534 ± 0.077 | 1.988 ± 0.016 | 0.35 ± 0.14 | 2 ± 0.032 |
| UGAACG | 0.174 ± 0.17 | 1.83 ± 0.021 | 0.296 ± 0.022 | 2 ± 0.035 |
| CGCAAC | 0.453 ± 0.13 | 2.027 ± 0.0066 | 0.417 ± 0.14 | 1.99 ± 0.013 |
| UGAUUA | -0.918 ± 0.18 | 1.951 ± 0.0029 | -0.48 ± 0.39 | 2.01 ± 0.037 |
| UGAUUG | 0.168 ± 0.056 | 1.768 ± 0.0099 | 0.541 ± 0.042 | 1.96 ± 0.025 |
| GGGAUG | 0.385 ± 0.017 | 1.974 ± 0.017 | 0.354 ± 0.025 | 2.04 ± 0.028 |
| UGCUCG | 0.493 ± 0.023 | 1.84 ± 0.06 | 0.49 ± 0.049 | 1.96 ± 0.072 |
| UGCUCU | 0.473 ± 0.12 | 2.056 ± 0.014 | 0.2 ± 0.019 | 2.06 ± 0.029 |
| AGCAGA | 0.0194 ± 0.039 | 1.98 ± 0.0025 | -0.229 ± 0.27 | 2.02 ± 0.029 |
